# Data as given in publication PMC10201421.
# Target: CTD (nucleocapsid C-terminal RNA binding domain) (SARS-CoV-2, UniProt P0DTC9 247-364)
# Assay: ITC
binder,measurement,value
GGUUCACCGAGGCCACGCGGAGUACGAUCGAGUGUACAGUGAACC (structured_RNA) [s2m-CoV-2],Kd,600 ± 200 nM
